Experimental findings from the supplement of paper PMC10567573 are described below.

B1: NECAB1 (parent)
chain: FSPNSPQFNVSGPGLLEEDNQWMT
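Further: lentivirally expressed fusions sorted by FACS into six bins by GFP to DsRed ratio, PSI derived from sequencing read proportions per bin multiplied by bin number.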

Variants of B1 are the subject of this data set. Briefly: protein stability index of a GFP-peptide fusion (GPS, HEK-293T) (PSI 1-6); higher = more stable. The settings on record: c terminus: a fixed tail appended.
Turning to FSPNSPQFNVSGPGLLQEDNQWMT [E17Q], the protein stability index was 3.13.
As to FSPNSPQFNVSGPGLLLEDNQWMT [E17L], the protein stability index amounted to 2.29.
With FSPNSPQFNVSGPGLLPEDNQWMT [E17P], the protein stability index was 2.58.
For the variant FSPNSPQFNVSGPGLLDEDNQWMT [E17D], the protein stability index turned out to be 2.74.
As for FSPNSPQFNVSGPGLLIEDNQWMT [E17I], the protein stability index is 2.53.
For FSPNSPQFNVSGPGLLREDNQWMT [E17R], the protein stability index turned out to be 2.86.
Turning to FSPNSPQFNVSGPGLLTEDNQWMT [E17T], the protein stability index amounted to 2.36.
The same measure for FSPNSPQFNVSGPGLLAEDNQWMT [E17A]: 2.4.
Take FSPNSPQFNVSGPGLLHEDNQWMT [E17H]: the protein stability index stood at 2.72.
Take FSPNSPQFNVSGPGLLCEDNQWMT [E17C]: the protein stability index stood at 2.04.
On to FSPNSPQFNVSGPGLLSEDNQWMT [E17S], for which the protein stability index turned out to be 2.98.
To FSPNSPQFNVSGPGLLVEDNQWMT [E17V] belongs 2.33; to FSPNSPQFNVSGPGLLEEDNQWQT [M23Q], 3.43; to FSPNSPQFNVSGPGLLEEDNQWRT [M23R], 3.08.
Take FSPNSPQFNVSGPGLLEEDNQWDT [M23D]: the protein stability index came to 4.65.
Take FSPNSPQFNVSGPGLLEEDNQWWT [M23W]: the protein stability index was 2.35.
FSPNSPQFNVSGPGLLEEDNQWIT [M23I]: the protein stability index was 2.45.
For the variant FSPNSPQFNVSGPGLLEEDNQWAT [M23A], the protein stability index was found to be 3.66.
For the variant FSPNSPQFNVSGPGLLEEDNQWNT [M23N], the protein stability index stood at 3.45.
Regarding FSPNSPQFNVSGPGLLEEDNQWET [M23E], the protein stability index turned out to be 4.15.
Consider FSPNSPQFNVSGPGLLEEDNQWLT [M23L], for which the protein stability index turned out to be 2.76.
In the case of FSPNSPQFNVSGPGLLEEDNQWCT [M23C], the protein stability index worked out at 2.67.
To FSPNSPQFNVSGPGLLEEDNQWYT [M23Y] belongs 2.77.
Turning to FSPNSPQFNVSGPGLLEEDNQWPT [M23P], the protein stability index is 2.87.
To FSPNSPQFNVSGPGLLEEDNQWHT [M23H] belongs 2.8.
In the case of FSPNSPQFNVSGPGLLEEDNQWGT [M23G], the protein stability index amounted to 3.66.
Turning to FSPNSPQFNVSGPGLLEEDNQWST [M23S], the protein stability index came out at 3.5.
For the variant FSPNSPQFNVSGPGLLEEDNQWFT [M23F], the protein stability index came out at 2.44.
Turning to FSPNSPQFNVSGPGLLEEDNQWTT [M23T], the protein stability index was 3.
As to FSPNSPQFNVSGPGLLEEDNQWVT [M23V], the protein stability index came to 2.71.
Take FSPNSPQFNVSGPGLLEEDNQWKT [M23K]: the protein stability index was 4.15.
Take FSPNSPQFNVSGPGLLEYDNQWMT [E18Y]: the protein stability index amounted to 1.82.
As for FSPNSPQFNVSGPGLLEVDNQWMT [E18V], the protein stability index turned out to be 2.31.
Regarding FSPNSPQFNVSGPGLLEPDNQWMT [E18P], the protein stability index stood at 1.84.
To FSPNSPQFNVSGPGLLEGDNQWMT [E18G] belongs 2.02; to FSPNSPQFNVSGPGLLEWDNQWMT [E18W], 2.14; to FSPNSPQFNVSGPGLLETDNQWMT [E18T], 2.23.
For the variant FSPNSPQFNVSGPGLLEHDNQWMT [E18H], the protein stability index is 2.39.
To FSPNSPQFNVSGPGLLECDNQWMT [E18C] belongs 1.89; to FSPNSPQFNVSGPGLLEADNQWMT [E18A], 2.82.
Consider FSPNSPQFNVSGPGLLENDNQWMT [E18N], for which the protein stability index turned out to be 2.83.
FSPNSPQFNVSGPGLLESDNQWMT [E18S]: the protein stability index amounted to 1.88.
On to FSPNSPQFNVSGPGLLEQDNQWMT [E18Q], for which the protein stability index worked out at 1.97.
Regarding FSPNSPQFNVSGPGLLERDNQWMT [E18R], the protein stability index is 2.14.
Turning to FSPNSPQFNVSGPGLLEIDNQWMT [E18I], the protein stability index turned out to be 2.4.
Regarding FSPNSPQFNVSGPGLLEFDNQWMT [E18F], the protein stability index turned out to be 2.61.
For the variant FSPNSPQFNVSGPGLLEDDNQWMT [E18D], the protein stability index is 2.91.
Consider FSPNSPQFNVSGPGLLELDNQWMT [E18L], for which the protein stability index amounted to 2.03.
Consider FSPNSPQFNVSGPGLLEKDNQWMT [E18K], for which the protein stability index was determined as 3.2.
For the variant FSPNSPQFNVSGPGLLEMDNQWMT [E18M], the protein stability index came out at 2.65.
Regarding FSPNSPQFNVSGPGLLEEINQWMT [D19I], the protein stability index is 2.55.
With FSPNSPQFNVSGPGLLEEWNQWMT [D19W], the protein stability index amounted to 2.02.
On to FSPNSPQFNVSGPGLLEECNQWMT [D19C], for which the protein stability index came out at 2.72.
On to FSPNSPQFNVSGPGLLEELNQWMT [D19L], for which the protein stability index amounted to 2.3.
On to FSPNSPQFNVSGPGLLEEYNQWMT [D19Y], for which the protein stability index is 2.44.
To FSPNSPQFNVSGPGLLEEVNQWMT [D19V] belongs 2.1.
In the case of FSPNSPQFNVSGPGLLEEHNQWMT [D19H], the protein stability index is 2.79.
Regarding FSPNSPQFNVSGPGLLEEANQWMT [D19A], the protein stability index worked out at 2.11.
As to FSPNSPQFNVSGPGLLEEFNQWMT [D19F], the protein stability index worked out at 2.12.
As to FSPNSPQFNVSGPGLLEEPNQWMT [D19P], the protein stability index is 2.03.
Turning to FSPNSPQFNVSGPGLLEEGNQWMT [D19G], the protein stability index was determined as 2.33.
To FSPNSPQFNVSGPGLLEERNQWMT [D19R] belongs 1.94; to FSPNSPQFNVSGPGLLEEKNQWMT [D19K], 2.18.
As for FSPNSPQFNVSGPGLLEEMNQWMT [D19M], the protein stability index amounted to 2.57.
To FSPNSPQFNVSGPGLLEEENQWMT [D19E] belongs 2.78; to FSPNSPQFNVSGPGLLEESNQWMT [D19S], 2.33.
In the case of FSPNSPQFNVSGPGLLEEQNQWMT [D19Q], the protein stability index is 2.5.
To FSPNSPQFNVSGPGLLEENNQWMT [D19N] belongs 2.57; to FSPNSPQFNVSGPGLLEETNQWMT [D19T], 2.1.
Consider FSPNSPQFNVSGPGSLEEDNQWMT [L15S], for which the protein stability index turned out to be 3.3.
The same measure for FSPNSPQFNVSGPGTLEEDNQWMT [L15T]: 3.25; for FSPNSPQFNVSGPGYLEEDNQWMT [L15Y]: 3.05.
Regarding FSPNSPQFNVSGPGRLEEDNQWMT [L15R], the protein stability index amounted to 2.51.
For the variant FSPNSPQFNVSGPGWLEEDNQWMT [L15W], the protein stability index amounted to 2.68.
FSPNSPQFNVSGPGVLEEDNQWMT [L15V]: the protein stability index came out at 3.23.
With FSPNSPQFNVSGPGLLEEDCQWMT [N20C], the protein stability index is 2.63.
As to FSPNSPQFNVSGPGLLEEDQQWMT [N20Q], the protein stability index turned out to be 2.84.
The same measure for FSPNSPQFNVSGPGLLEEDPQWMT [N20P]: 3.28; for FSPNSPQFNVSGPGLLEEDYQWMT [N20Y]: 2.26.
With FSPNSPQFNVSGPGLLEEDMQWMT [N20M], the protein stability index was found to be 2.54.
On to FSPNSPQFNVSGPGLLEEDRQWMT [N20R], for which the protein stability index was 2.88.
In the case of FSPNSPQFNVSGPGLLEEDGQWMT [N20G], the protein stability index was found to be 2.79.
Regarding FSPNSPQFNVSGPGLLEEDDQWMT [N20D], the protein stability index was 3.86.
With FSPNSPQFNVSGPGLLEEDKQWMT [N20K], the protein stability index is 2.54.
As to FSPNSPQFNVSGPGLLEEDFQWMT [N20F], the protein stability index was 2.71.
To FSPNSPQFNVSGPGLLEEDEQWMT [N20E] belongs 3.73; to FSPNSPQFNVSGPGLLEEDLQWMT [N20L], 2.27.
In the case of FSPNSPQFNVSGPGLLEEDIQWMT [N20I], the protein stability index amounted to 2.24.
For FSPNSPQFNVSGPGLLEEDSQWMT [N20S], the protein stability index turned out to be 2.68.
For the variant FSPNSPQFNVSGPGLLEEDTQWMT [N20T], the protein stability index came out at 3.19.
Take FSPNSPQFNVSGPGLLEEDHQWMT [N20H]: the protein stability index was determined as 2.62.
With FSPNSPQFNVSGPGLLEEDVQWMT [N20V], the protein stability index amounted to 2.58.
Consider FSPNSPQFNVSGPGLLEEDWQWMT [N20W], for which the protein stability index amounted to 2.46.
Regarding FSPNSPQFNVSGPGLLEEDAQWMT [N20A], the protein stability index is 3.29.
